Assay results reported in patent publication US20080051336A1 (Janssen / Centocor, published 2008).
Read-outs that look alike come from different tables or passages of the source. Ends that are not written are not given here.

Assays:
[1] = biological target: T1, rat GPCR135 (rat, UniProt Q8BGE9 1-472 (mouse entry)); test: competition with [125I]R3 (100 pM), COS-7 membranes with rat GPCR135
T1 construct: Also tested as the native receptor in rat brain sections; also called rat GPCR135 receptors
T1 chain: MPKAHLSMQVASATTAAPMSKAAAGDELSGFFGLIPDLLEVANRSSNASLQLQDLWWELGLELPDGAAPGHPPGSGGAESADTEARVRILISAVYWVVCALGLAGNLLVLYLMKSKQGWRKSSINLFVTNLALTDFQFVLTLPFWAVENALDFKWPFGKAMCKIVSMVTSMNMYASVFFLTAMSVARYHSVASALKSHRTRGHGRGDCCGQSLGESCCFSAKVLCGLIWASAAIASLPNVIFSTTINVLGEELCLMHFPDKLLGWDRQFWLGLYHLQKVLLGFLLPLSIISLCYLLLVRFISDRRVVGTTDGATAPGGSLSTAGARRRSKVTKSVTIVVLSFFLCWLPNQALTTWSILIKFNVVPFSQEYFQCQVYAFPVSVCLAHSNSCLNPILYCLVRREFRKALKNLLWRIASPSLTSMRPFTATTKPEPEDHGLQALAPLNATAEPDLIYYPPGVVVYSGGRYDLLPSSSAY
Experimental: (§1) The reaction was incubated at room temperature for 1 hour and the membranes were filtered through the 96-well GFC plates (Packard Instrument Co., Meriden, Conn.) using a cell harvester (Packard Instrument Co). The filter was washed with the ice cold washing buffer (50 mM Tris-HCl, pH 7.5). Fifty μl of Microscint 40 (Packard Instrument Co) was added to each well and the plates were counted on a Topcount NTX (Packard Instrument Co). […] The results were analyzed using the PRISM software (GraphPad, San Diego, Calif.).

[2] = biological target: T2, rat LGR7 (rat, UniProt Q6R6I6 1-758); test: competition with [125I]R2 (100 pM), COS-7 membranes with rat LGR7
T2 construct: whole, on cells; Tested as membranes of transfected COS-7 cells; also called rat LGR7 receptors
T2 sequence (looked up): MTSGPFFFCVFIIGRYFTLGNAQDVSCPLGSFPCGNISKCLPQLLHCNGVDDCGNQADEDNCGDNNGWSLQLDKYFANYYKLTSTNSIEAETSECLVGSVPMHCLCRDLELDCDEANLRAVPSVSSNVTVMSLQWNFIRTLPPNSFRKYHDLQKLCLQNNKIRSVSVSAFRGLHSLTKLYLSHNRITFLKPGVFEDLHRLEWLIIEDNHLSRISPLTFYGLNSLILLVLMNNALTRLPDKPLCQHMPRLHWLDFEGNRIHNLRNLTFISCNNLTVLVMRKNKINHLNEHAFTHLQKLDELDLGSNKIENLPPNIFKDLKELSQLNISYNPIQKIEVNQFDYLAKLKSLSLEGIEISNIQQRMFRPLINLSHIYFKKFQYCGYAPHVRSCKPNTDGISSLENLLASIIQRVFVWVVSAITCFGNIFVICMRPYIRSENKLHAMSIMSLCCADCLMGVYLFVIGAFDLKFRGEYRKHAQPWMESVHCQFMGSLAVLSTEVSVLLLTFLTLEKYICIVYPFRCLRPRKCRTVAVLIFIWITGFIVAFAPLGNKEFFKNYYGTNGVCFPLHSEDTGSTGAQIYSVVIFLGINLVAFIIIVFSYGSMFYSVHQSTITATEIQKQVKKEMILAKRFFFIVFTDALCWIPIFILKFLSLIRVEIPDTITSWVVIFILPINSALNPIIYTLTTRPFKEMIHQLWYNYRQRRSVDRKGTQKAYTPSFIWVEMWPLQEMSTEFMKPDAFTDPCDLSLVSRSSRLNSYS
Experimental: as §1

[3] = biological target: T1, rat GPCR135; test: competition with [125I]-R3 (100 pM), COS-7 membranes with rat GPCR135
Experimental: as §1

[4] = biological target: T3, human LGR7 (human, UniProt Q9HBX9 1-757); test: cell-based or functional assay
T3 sequence (looked up): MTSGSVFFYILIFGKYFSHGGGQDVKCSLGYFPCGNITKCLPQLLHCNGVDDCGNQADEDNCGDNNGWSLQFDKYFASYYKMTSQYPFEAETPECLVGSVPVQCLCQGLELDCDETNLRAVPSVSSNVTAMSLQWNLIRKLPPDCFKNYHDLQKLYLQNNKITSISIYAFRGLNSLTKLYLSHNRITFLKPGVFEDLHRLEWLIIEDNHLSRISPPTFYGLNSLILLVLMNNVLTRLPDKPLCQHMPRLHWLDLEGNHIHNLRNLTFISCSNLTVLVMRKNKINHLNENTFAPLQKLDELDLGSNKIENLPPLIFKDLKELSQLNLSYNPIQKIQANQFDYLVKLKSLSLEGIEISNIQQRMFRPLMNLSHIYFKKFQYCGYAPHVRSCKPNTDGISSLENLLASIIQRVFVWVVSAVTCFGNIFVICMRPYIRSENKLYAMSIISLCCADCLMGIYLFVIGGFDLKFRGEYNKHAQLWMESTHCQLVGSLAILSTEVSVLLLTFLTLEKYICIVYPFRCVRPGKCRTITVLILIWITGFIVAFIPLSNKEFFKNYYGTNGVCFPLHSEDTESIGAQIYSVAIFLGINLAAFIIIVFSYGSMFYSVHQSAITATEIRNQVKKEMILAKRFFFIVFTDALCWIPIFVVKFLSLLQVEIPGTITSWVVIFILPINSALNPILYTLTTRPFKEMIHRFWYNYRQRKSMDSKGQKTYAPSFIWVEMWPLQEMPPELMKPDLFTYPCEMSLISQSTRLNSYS

[5] = biological target: T4, human GPCR135 (human, UniProt Q9NSD7 1-469); test: competition with [125I]-relaxin-3 (100 pM), COS-7 membranes with human GPCR135
T4 construct: Recombinant; also called SALPR
T4 sequence: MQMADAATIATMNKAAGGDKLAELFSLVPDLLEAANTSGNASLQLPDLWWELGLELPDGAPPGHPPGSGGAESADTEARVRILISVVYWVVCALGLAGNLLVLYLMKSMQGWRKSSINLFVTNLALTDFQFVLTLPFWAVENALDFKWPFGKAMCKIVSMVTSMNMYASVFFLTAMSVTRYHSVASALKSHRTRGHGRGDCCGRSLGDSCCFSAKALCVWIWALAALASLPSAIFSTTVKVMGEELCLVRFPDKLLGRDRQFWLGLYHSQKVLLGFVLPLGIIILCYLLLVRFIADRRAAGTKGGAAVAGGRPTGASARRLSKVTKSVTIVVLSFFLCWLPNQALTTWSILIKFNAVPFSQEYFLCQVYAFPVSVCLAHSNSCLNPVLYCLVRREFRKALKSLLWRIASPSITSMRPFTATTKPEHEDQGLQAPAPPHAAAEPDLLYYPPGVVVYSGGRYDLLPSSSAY
Experimental: (§2) Different unlabeled peptides were used in the binding assay as the competitors. […] Data represent mean±SEM (n=3).
(§3) Peptides for competition binding studies were added to the binding mix (final volume: 200 μl) in binding buffer [50 mM Tris-HCl, pH 7.5, 5 mM EDTA, 1% bovine serum albumin, 0.1% protease inhibitor cocktails (Sigma)]. The binding mixtures were incubated at room temperature for 1 hour, filtered through GFC plates (Packard) pre-saturated with 0.3% Polyethylenimine (Sigma), and washed with cold washing buffer (50 mM Tris-HCl, pH 7.5, 5 mM EDTA).

[6] = biological target: T3, human LGR7; test: discussion of the radioligand binding results
[7] = biological target: T4, human GPCR135; test: discussion of the radioligand binding results
[8] = biological target: T5, human LGR8 (human, UniProt Q8WXD0 1-754); test: competition with [125I]-INSL3 (100 pM) on live COS-7 cells expressing human LGR8; ND denotes no activity was detected
T5 construct: whole, on cells
T5 sequence (Q8WXD0 whole entry): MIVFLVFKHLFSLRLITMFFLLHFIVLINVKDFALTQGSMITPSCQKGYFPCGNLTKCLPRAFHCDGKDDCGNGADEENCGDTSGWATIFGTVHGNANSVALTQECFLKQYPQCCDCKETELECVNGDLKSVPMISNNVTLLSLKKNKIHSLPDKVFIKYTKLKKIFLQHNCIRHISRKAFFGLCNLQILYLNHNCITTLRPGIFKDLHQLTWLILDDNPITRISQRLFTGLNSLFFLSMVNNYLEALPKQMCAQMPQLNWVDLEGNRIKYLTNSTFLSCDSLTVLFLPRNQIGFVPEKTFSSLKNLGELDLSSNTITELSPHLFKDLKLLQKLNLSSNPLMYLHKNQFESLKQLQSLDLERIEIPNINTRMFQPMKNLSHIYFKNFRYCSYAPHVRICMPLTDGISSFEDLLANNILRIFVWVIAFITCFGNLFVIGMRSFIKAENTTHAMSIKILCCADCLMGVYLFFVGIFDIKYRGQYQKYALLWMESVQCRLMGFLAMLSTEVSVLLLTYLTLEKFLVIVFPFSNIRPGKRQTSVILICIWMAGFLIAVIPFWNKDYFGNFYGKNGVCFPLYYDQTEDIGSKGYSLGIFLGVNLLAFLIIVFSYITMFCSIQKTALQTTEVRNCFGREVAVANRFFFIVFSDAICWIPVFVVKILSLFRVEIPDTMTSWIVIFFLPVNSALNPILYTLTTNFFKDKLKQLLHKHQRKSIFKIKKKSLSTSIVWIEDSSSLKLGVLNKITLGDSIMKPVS
Experimental: as §2
(§4) Radioligand binding assays for LGR7 and LGR8 were performed using live COS-7 cells transiently transfected with LGR7 or LGR8 expression plasmids in 15-cm culture dishes using LipofectAmine (Invitrogen). Two days after transfection, the transfected cells were detached from the 15-cm culture dished using phosphate buffered saline (PBS) plus 10 mM EDTA, seeded into 96-well opaque poly-D-lysine coated culture plates and used for radioligand binding assays. […] [¹²⁵I]-labeled tracer was added in binding reactions at a final concentration of 100 pM in binding buffer containing DMEM plus 50 mM HEPES and 1% bovine serum albumin. […] The binding mixtures were incubated at room temperature for 1 hour. The unbound radioligand was removed by aspiration of the binding buffer. The cells were washed with PBS. The bound radioligand was counted in a scintillation counter (TopCount/NTX). The results were analyzed using Prism 3.0 program (Graphpad, San Diego, Calif.).

[9] = biological target: T1, rat GPCR135; test: radioligand competition, COS-7 membranes; reference rat LGR7
Experimental: as §1

[10] = biological target: T6, human GPCR142 (human, UniProt Q8TDU9 1-374); test: competition with [125I]-relaxin-3 (100 pM), COS-7 membranes with human GPCR142
T6 construct: Recombinant
T6 sequence (Q8TDU9 whole entry L329S): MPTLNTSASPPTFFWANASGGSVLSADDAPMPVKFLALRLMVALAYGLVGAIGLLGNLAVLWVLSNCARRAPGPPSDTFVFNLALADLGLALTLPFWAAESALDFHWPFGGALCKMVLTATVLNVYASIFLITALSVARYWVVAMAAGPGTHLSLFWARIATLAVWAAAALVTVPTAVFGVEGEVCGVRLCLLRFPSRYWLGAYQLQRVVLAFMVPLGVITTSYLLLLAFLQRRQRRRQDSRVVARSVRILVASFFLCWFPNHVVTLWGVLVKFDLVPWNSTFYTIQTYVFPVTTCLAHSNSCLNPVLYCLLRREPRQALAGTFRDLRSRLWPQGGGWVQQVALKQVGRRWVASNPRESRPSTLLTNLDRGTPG
Experimental: as §2, §3

[11] = biological target: T3, human LGR7; test: competition with [125I]-relaxin-3 (100 pM), live COS-7 cells with human LGR7
Experimental: as §2, §4

[12] = biological target: T6, human GPCR142; test: cell-based or functional assay
[13] = biological target: T3, human LGR7; test: cell-based or functional assay; remark: listed apart in the source
[14] = biological target: T4, human GPCR135; test: cell-based or functional assay
[15] = biological target: T3, human LGR7; test: radioligand competition, live COS-7 cells with human LGR7
Experimental: as §2, §4

[16] = biological target: T3, human LGR7; test: competition with [125I]-relaxin-3 (100 pM) on live COS-7 cells expressing human LGR7; ND denotes no activity was detected
Experimental: as §2, §4

[17] = biological target: T1, rat GPCR135; test: inhibition of [125I]R3/I5 binding sites, quantitative receptor autoradiography, rat olfactory bulb
Experimental: (§5) Sections were thawed and dried under a cold air stream and then pre-incubated for 15 min. at room temperature in incubation buffer (20 mM HEPES, pH 7.4, 120 mM NaCl₂, 0.22 mM KH₂PO₄, 1.3 mM CaCl₂, 0.8 mM MgSO₄) by immersing sections in a 400 ml jar. […] After incubation, the excess radioligand was washed off by immersing the slides in the jar containing incubation buffer at 4° C. (3 times 10 min.) followed by a quick immersion in water. […] The imaging plates were scanned using the Fuji Bio-Imaging Analyzer System (BAS-5000, Fuji Medical System, CT) and visualized using ImageGauge V3.12 software (Fuji Medical System, CT).

[18] = biological target: T1, rat GPCR135; test: inhibition of [125I]R3/I5 binding sites, quantitative receptor autoradiography, rat cortex
Experimental: as §5

[19] = biological target: T1, rat GPCR135; test: inhibition of [125I]R3/I5 binding sites, quantitative receptor autoradiography, rat superior colliculus
Experimental: as §5

B1: human relaxin (R1) (ligand)
chain: KWKDDVIKLCGRELVRAQIAICGMSTWSRPYVALFEKCCLIGCTKRSLAKYC
notes: also called relaxin-1
**Q.** For B1, which IC50 [1] is on record?
**A.** > 1000 nM

**Q.** What about the IC50 [2] of the same binder?
**A.** 0.2 nM

B2: human relaxin-3/INSL5 chimeric polypeptide (R3/I5), mature (ligand)
chain: RAAPYGVRLCGREFIRAVIFTCGGSRWQDLQTLCCTDGCSMTDLSALC
modifications: disulfide (positions not given here); also: two chains (relaxin-3 B-chain, INSL5 A-chain), disulfide-linked, chain break not marked
notes: Mature two-chain peptide: human relaxin-3 B-chain disulfide-linked to human INSL5 A-chain; FLAG tag removed; the tracer is kept under this same molecule; also called R3/5; I5/R3
**Q.** What does the source list for B2?
**A.** IC50 [3]: 0.5 nM; EC50, ligand stimulated β-galactosidase expression [4]: ~400 nM; IC50 [5]: 0.68 nM; Kd [6]: ~500 nM; Kd [7]: ~0.5 nM; binding result [8]: no binding; IC50 [2]: > 400 nM; fold selectivity over rat LGR7 [9]: 800 fold; IC50 [10]: 1.4 nM; IC50 [11]: 724 nM; EC50, inhibition of forskolin stimulated β-galactosidase expression [12]: 0.91 nM; EC50, ligand stimulated β-galactosidase expression [13]: 412 nM; EC50, inhibition of forskolin stimulated β-galactosidase expression [14]: 0.45 nM; IC50 [15]: ~500 nM

B3: human relaxin-3/INSL4 chimeric polypeptide (R3/I4), mature (ligand)
chain: RAAPYGVRLCGREFIRAVIFTCGGSRWFDPFCCEVICDDGTSVKLC
modifications: disulfide (positions not given here); also: two chains (relaxin-3 B-chain, INSL4 A-chain), disulfide-linked, chain break not marked
notes: Mature two-chain peptide: human relaxin-3 B-chain disulfide-linked to human INSL4 A-chain; FLAG tag removed
**Q.** With B3 as the binder, how does the IC50 [5] read?
**A.** > 1000 nM

**Q.** Does B3 bind [8]?
**A.** no binding

**Q.** Does B3 bind [16]?
**A.** no binding (tested: 1 µM)

**Q.** And the IC50 [10]?
**A.** > 1000 nM

**Q.** What about the “EC50, inhibition of forskolin stimulated β-galactosidase expression” value [12] of the same binder?
**A.** > 1000 nM

**Q.** And the “EC50, inhibition of forskolin stimulated β-galactosidase expression” value [14]?
**A.** > 1000 nM

B4: human relaxin-3 (ligand)
chain: RAAPYGVRLCGREFIRAVIFTCGGSRWDVLAGLSSSCCKWGCSKSEISSLC
modifications: disulfide (positions not given here); also: two-chain peptide (A and B chains), disulfide-linked, places not given here
notes: Mature two-chain peptide (A-chain and B-chain, disulfide-linked); It is not clear whether that entry holds the B-chain alone or both chains; also called R3; INSL7
**Q.** For B4, which “EC50, stimulation of β-galactosidase activity” value [4] is on record?
**A.** 1.4 nM

**Q.** And the IC50 [17]?
**A.** 0.3 nM

**Q.** What about the IC50 [18] of the same binder?
**A.** 0.4 nM

**Q.** And the IC50 [19]?
**A.** 0.3 nM
